Results on six molecules are retold here after patent US20150139990A1 (DAINIPPON SUMITOMO PHARMA, published 2015).

One experiment addresses T1, human CD81 mutant H151A (human, UniProt P60033 1-236, limits assumed).
T1 construct: as m30; not shown: C-terminal V5 and 6xHis tags
T1 sequence: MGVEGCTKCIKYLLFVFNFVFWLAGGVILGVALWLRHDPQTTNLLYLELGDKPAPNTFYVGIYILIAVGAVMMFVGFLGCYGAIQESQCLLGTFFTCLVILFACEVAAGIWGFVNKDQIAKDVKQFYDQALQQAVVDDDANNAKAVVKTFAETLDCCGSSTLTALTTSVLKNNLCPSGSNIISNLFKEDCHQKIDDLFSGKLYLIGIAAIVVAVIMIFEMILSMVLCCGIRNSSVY
Briefly: ELISA. (In general: ELISA stands for enzyme-linked immunosorbent assay.)

The target of the next experiment is T2, human CD81 mutant V135L (human, UniProt P60033 1-236, limits assumed).
T2 construct: as m30; not shown: C-terminal V5 and 6xHis tags
T2 sequence: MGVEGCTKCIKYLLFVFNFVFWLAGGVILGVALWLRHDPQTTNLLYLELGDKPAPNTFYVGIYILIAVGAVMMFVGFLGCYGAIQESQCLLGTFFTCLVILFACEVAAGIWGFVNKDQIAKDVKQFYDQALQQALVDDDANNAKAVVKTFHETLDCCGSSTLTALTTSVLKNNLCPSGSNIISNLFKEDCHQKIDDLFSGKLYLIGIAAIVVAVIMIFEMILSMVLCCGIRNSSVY
Put plainly: ELISA.

A further experiment deals with T3, human CD81 mutant D137E (human, UniProt P60033 1-236, limits assumed).
T3 construct: as m30; not shown: C-terminal V5 and 6xHis tags
T3 sequence: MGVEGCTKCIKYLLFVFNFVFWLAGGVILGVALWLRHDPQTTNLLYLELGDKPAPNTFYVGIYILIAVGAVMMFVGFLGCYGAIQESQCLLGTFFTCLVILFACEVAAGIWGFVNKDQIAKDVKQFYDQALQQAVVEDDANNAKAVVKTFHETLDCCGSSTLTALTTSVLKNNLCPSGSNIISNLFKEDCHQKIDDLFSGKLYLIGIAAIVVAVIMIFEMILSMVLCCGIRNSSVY
Briefly: ELISA.

The next experiment has as its target T4, human CD81 mutant H151R (human, UniProt P60033 1-236, limits assumed).
T4 construct: as m30; also called H151B; not shown: C-terminal V5 and 6xHis tags
T4 sequence: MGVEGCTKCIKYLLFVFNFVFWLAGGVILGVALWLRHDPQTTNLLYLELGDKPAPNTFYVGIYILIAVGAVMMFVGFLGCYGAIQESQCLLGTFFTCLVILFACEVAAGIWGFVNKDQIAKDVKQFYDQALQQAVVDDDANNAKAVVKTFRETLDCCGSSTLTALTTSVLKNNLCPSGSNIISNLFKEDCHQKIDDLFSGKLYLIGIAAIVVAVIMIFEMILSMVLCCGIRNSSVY
Put plainly: ELISA.

Another experiment concerns the target T5, human CD81 mutant G158A (human, UniProt P60033 1-236, limits assumed).
T5 construct: as m30; not shown: C-terminal V5 and 6xHis tags
T5 sequence: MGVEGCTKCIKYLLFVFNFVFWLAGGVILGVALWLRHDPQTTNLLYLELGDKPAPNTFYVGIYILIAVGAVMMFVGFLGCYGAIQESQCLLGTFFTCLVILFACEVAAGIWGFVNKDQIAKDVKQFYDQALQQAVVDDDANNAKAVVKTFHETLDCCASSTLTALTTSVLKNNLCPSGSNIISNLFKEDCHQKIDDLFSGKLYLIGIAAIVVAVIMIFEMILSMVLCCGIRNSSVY
Briefly: ELISA.

The target of the next experiment is T6, human CD81 mutant S168T (human, UniProt P60033 1-236, limits assumed).
T6 construct: as m30; not shown: C-terminal V5 and 6xHis tags
T6 sequence: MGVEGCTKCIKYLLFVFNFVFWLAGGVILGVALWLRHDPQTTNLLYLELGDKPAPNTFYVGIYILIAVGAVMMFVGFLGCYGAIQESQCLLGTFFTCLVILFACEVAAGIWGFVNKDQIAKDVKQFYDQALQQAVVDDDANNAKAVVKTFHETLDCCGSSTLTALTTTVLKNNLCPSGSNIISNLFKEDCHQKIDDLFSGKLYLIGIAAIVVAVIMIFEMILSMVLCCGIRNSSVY
Briefly: ELISA.

Experiment [1] concerns the target T7, human CD81 on CD81-expressing cells (Jurkat E6.1, human PBMC, Ramos) (human, UniProt P60033 1-236).
T7 sequence: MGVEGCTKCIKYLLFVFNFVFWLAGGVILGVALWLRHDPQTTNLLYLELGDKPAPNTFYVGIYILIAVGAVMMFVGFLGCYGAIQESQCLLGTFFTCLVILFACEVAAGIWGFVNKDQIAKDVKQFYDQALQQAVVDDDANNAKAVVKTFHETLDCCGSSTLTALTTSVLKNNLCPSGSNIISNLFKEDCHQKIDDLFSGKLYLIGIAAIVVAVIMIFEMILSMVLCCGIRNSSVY
Put plainly: cell-based or functional assay.

The target in a further experiment is T8, human CD81 mutant L170A (human, UniProt P60033 1-236, limits assumed).
T8 construct: as m30; not shown: C-terminal V5 and 6xHis tags
T8 sequence: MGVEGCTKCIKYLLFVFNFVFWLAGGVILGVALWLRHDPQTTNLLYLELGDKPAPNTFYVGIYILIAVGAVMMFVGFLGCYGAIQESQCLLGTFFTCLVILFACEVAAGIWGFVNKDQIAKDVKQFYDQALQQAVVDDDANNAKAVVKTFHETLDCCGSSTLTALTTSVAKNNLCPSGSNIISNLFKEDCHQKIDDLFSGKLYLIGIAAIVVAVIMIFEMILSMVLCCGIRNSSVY
Put plainly: ELISA.

A value given as a limit tells only on which side of the number the result lay.

B1: 002-A07 IgG4 antibody (antibody)
heavy: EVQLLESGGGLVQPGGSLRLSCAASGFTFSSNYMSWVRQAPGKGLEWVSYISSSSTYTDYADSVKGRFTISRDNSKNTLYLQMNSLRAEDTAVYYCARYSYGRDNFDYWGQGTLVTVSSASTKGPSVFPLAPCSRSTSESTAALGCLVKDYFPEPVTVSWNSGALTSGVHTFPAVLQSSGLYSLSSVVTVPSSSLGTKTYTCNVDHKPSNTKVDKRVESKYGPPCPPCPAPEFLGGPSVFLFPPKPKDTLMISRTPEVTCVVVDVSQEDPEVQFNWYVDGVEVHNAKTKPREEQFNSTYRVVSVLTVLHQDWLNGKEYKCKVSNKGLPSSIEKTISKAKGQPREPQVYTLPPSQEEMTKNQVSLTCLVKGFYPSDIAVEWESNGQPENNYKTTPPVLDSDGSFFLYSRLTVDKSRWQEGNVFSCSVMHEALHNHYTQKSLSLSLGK
light: QSVLTQPPSASGTPGQRVTISCTGSTSNIGAGYDTHWYQQLPGTAPKLLIYGNSNRPSGVPDRFSGSKSGTSASLAISGLRSEDEADYYCQSYDTNLSVWVFGGGTKLTVLGQPKAAPSVTLFPPSSEELQANKATLVCLISDFYPGAVTVAWKADSSPVKAGVETTTPSKQSNNKYAASSYLSLTPEQWKSHRSYSCQVTHEGSTVEKTVAPTECS
notes: human IgG4 S228P, lambda light chain
With B1, the relative binding affinity with human CD81 mutant H151A, with human CD81 mutant V135L, with human CD81 mutant D137E, in the experiment with human CD81 mutant H151R, with human CD81 mutant G158A and with human CD81 mutant S168T was below 20% in each case. Moreover, in experiment [1], the “Jurkat chemotaxis (% of control IgG4) at 0.001 µg/mL” value was found to be 90%. The “Jurkat chemotaxis (% of control IgG4) at 0.01 µg/mL” value in experiment [1] is 93%. Besides, the “Jurkat chemotaxis (% of control IgG4) at 0.1 µg/mL” value in experiment [1] turned out to be 21%. Also, the “Jurkat chemotaxis (% of control IgG4) at 1 µg/mL” value in experiment [1] was -2%. Also, the “Jurkat chemotaxis (% of control IgG4) at 10 µg/mL” value in experiment [1] was found to be 3%.

B2: 002-A07 N113S (antibody, human IgG4 S228P, lambda, V domains shown)
VH: EVQLLESGGGLVQPGGSLRLSCAASGFTFSSNYMSWVRQAPGKGLEWVSYISSSSTYTDYADSVKGRFTISRDNSKNTLYLQMNSLRAEDTAVYYCARYSYGRDNFDYWGQGTLVTVSS
VL: QSVLTQPPSASGTPGQRVTISCTGSTSNIGAGYDTHWYQQLPGTAPKLLIYGNSNRPSGVPDRFSGSKSGTSASLAISGLRSEDEADYYCQSYDTSLSVWVFGGGTKLTVLG
notes: IgG4 S228P; glycosylation site mutant of 002-A07 VL
On to B2, for which the relative binding affinity with human CD81 mutant H151A, in the experiment with human CD81 mutant L170A, with human CD81 mutant V135L, in the experiment with human CD81 mutant D137E, in the experiment with human CD81 mutant H151R and with human CD81 mutant G158A was below 20% throughout. In the experiment with human CD81 mutant S168T, this molecule yielded a relative binding affinity below 20%. The “Jurkat chemotaxis (% of control IgG4) at 0.001 µg/mL” value in experiment [1] turned out to be 99%. In addition, the “Jurkat chemotaxis (% of control IgG4) at 0.01 µg/mL” value in experiment [1] is 101%. Moreover, in experiment [1], the “Jurkat chemotaxis (% of control IgG4) at 0.1 µg/mL” value turned out to be 40%. Also, the “Jurkat chemotaxis (% of control IgG4) at 1 µg/mL” value in experiment [1] came to 13%. The “Jurkat chemotaxis (% of control IgG4) at 10 µg/mL” value in experiment [1] turned out to be 12%.

B3: 002-A07 S115G (antibody, human IgG4 S228P, lambda, V domains shown)
VH: EVQLLESGGGLVQPGGSLRLSCAASGFTFSSNYMSWVRQAPGKGLEWVSYISSSSTYTDYADSVKGRFTISRDNSKNTLYLQMNSLRAEDTAVYYCARYSYGRDNFDYWGQGTLVTVSS
VL: QSVLTQPPSASGTPGQRVTISCTGSTSNIGAGYDTHWYQQLPGTAPKLLIYGNSNRPSGVPDRFSGSKSGTSASLAISGLRSEDEADYYCQSYDTNLGVWVFGGGTKLTVLG
notes: as for B2
For the molecule B3, in the experiment with human CD81 mutant V135L, the relative binding affinity was below 20%. For the same molecule, the relative binding affinity in the experiment with human CD81 mutant D137E was below 20%. The same molecule gave a relative binding affinity in the experiment with human CD81 mutant H151R below 20%. For the same molecule, in the experiment with human CD81 mutant G158A, the relative binding affinity was below 20%. The same molecule showed a relative binding affinity with human CD81 mutant S168T below 20%. For the same molecule, in experiment [1], the “Jurkat chemotaxis (% of control IgG4) at 0.001 µg/mL” value worked out at 84%, the “Jurkat chemotaxis (% of control IgG4) at 0.01 µg/mL” value was 74%, the “Jurkat chemotaxis (% of control IgG4) at 0.1 µg/mL” value was 13% and the “Jurkat chemotaxis (% of control IgG4) at 1 µg/mL” value is -9%. In addition, the “Jurkat chemotaxis (% of control IgG4) at 10 µg/mL” value in experiment [1] was -3%.

B4: 003-D07 (antibody, human IgG4 S228P, lambda, V domains shown)
VH: EVQLLESGGGLVQPGGSLRLSCAASGFTFSSNYMSWVRQAPGKGLEWVSYISSSSTYTDYADSVKGRFTISRDNSKNTLYLQMNSLRAEDTAVYYCARYSYDRDNFDYWGQGTLVTVSS
VL: QSVLTQPFSASGTPGQRVTISCTGSTSNIGAGYDTHWYQHLPGTAPKLLIYGNSNRPSGVPDRFSGSKSGTSASLAISGLRSEDEADYYCQSYDTNLSVWVFGGGTKLTVLG
notes: IgG4 S228P
The molecule B4 came in with a relative binding affinity with human CD81 mutant V135L below 20%. The molecule further returned a relative binding affinity in the experiment with human CD81 mutant H151R below 20%. Further, in experiment [1], the “Jurkat chemotaxis (% of control IgG4) at 0.001 µg/mL” value is 87%, the “Jurkat chemotaxis (% of control IgG4) at 0.01 µg/mL” value turned out to be 79%, the “Jurkat chemotaxis (% of control IgG4) at 0.1 µg/mL” value came out at 42% and the “Jurkat chemotaxis (% of control IgG4) at 1 µg/mL” value was -5%. Also, the “Jurkat chemotaxis (% of control IgG4) at 10 µg/mL” value in experiment [1] is -9%.

B5: 002-A07 N113Q (antibody, human IgG4 S228P, lambda, V domains shown)
VH: EVQLLESGGGLVQPGGSLRLSCAASGFTFSSNYMSWVRQAPGKGLEWVSYISSSSTYTDYADSVKGRFTISRDNSKNTLYLQMNSLRAEDTAVYYCARYSYGRDNFDYWGQGTLVTVSS
VL: QSVLTQPPSASGTPGQRVTISCTGSTSNIGAGYDTHWYQQLPGTAPKLLIYGNSNRPSGVPDRFSGSKSGTSASLAISGLRSEDEADYYCQSYDTQLSVWVFGGGTKLTVLG
notes: as for B2
On to B5, for which the relative binding affinity with human CD81 mutant H151A, in the experiment with human CD81 mutant V135L, with human CD81 mutant D137E, in the experiment with human CD81 mutant H151R, with human CD81 mutant G158A and with human CD81 mutant S168T was below 20% in each case. The “Jurkat chemotaxis (% of control IgG4) at 0.001 µg/mL” value in experiment [1] was 104%. The “Jurkat chemotaxis (% of control IgG4) at 0.01 µg/mL” value in experiment [1] was determined as 99%. Also, the “Jurkat chemotaxis (% of control IgG4) at 0.1 µg/mL” value in experiment [1] was 37%. Moreover, the “Jurkat chemotaxis (% of control IgG4) at 1 µg/mL” value in experiment [1] was 13%. Besides, the “Jurkat chemotaxis (% of control IgG4) at 10 µg/mL” value in experiment [1] is 12%.

B6: 002-A07 N113G (antibody, human IgG4 S228P, lambda, V domains shown)
VH: EVQLLESGGGLVQPGGSLRLSCAASGFTFSSNYMSWVRQAPGKGLEWVSYISSSSTYTDYADSVKGRFTISRDNSKNTLYLQMNSLRAEDTAVYYCARYSYGRDNFDYWGQGTLVTVSS
VL: QSVLTQPPSASGTPGQRVTISCTGSTSNIGAGYDTHWYQQLPGTAPKLLIYGNSNRPSGVPDRFSGSKSGTSASLAISGLRSEDEADYYCQSYDTGLSVWVFGGGTKLTVLG
notes: as for B2
Turning to B6, the relative binding affinity with human CD81 mutant H151A, with human CD81 mutant L170A, with human CD81 mutant V135L, with human CD81 mutant D137E, in the experiment with human CD81 mutant H151R and in the experiment with human CD81 mutant G158A was below 20% throughout. The molecule further displayed a relative binding affinity in the experiment with human CD81 mutant S168T below 20%. Besides, the “Jurkat chemotaxis (% of control IgG4) at 0.001 µg/mL” value in experiment [1] was found to be 99%. For the same molecule, the “Jurkat chemotaxis (% of control IgG4) at 0.01 µg/mL” value in experiment [1] is 101%. In experiment [1], the “Jurkat chemotaxis (% of control IgG4) at 0.1 µg/mL” value was found to be 38%. The “Jurkat chemotaxis (% of control IgG4) at 1 µg/mL” value in experiment [1] amounted to 13%. Moreover, in experiment [1], the “Jurkat chemotaxis (% of control IgG4) at 10 µg/mL” value was 7%.
